Experimental data published in the supplement of paper PMC9170038.

Tested on: MS2 coat protein
Test: apparent KD of MS2 coat protein; designed switch direction (-1 OFF switch, 1 ON switch): 1; higher = weaker reporter binding
Procedure, shortened: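 Designed RNA switches were transcribed on Illumina chips by stalled E. coli RNA polymerase and titrated with SNAP-549-labelled MS2 coat protein from 0.7 or 1.5 nM, doubling to 3 µM. Step length ran from 0.8–1.5 h at the lowest concentration to 10–20 min at the highest. The apparent KD is the median over clusters for each design, from curve-fitted normalised cluster fluorescence.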

[1] = input ligand: microRNA oligo, concentration not stated
[2] = Eterna round: R95, input ligand: FMN 200 uM
[3] = Eterna round: R95, input ligand: microRNA oligo, concentration not stated
[4] = Eterna round: R95, input ligand: none

Sequence | apparent KD of MS2 coat protein (input ligand: FMN 200 uM) [nM] | apparent KD of MS2 coat protein [1] [nM] | apparent KD of MS2 coat protein (input ligand: none) [nM] | apparent KD of MS2 coat protein [2] [nM] | apparent KD of MS2 coat protein [3] [nM] | apparent KD of MS2 coat protein [4] [nM]
AAACAUGAGCGAGGAUAUGCGGAGGAUCACCCUGUAGAAGGCGCAUGUAAAACAACAUGAGGAUCACCCAUGUCAUGUACAUAA (Eterna round: R96, puzzle: Same State NG 1) | 77.5 | 144 | 223 | – | – | –
GGAGAACAUGAGGAUCACCCAUGUGAGAGGGAUGUAGGAUAUGUGAGGAGUAAAGGAGGGACAGAAGGACAGAGAU [JR_SS!_Sub068] (puzzle: Same State 1) | – | – | – | 37.4 | 40.5 | 47.7
AGCUAUUAAUCAGGAUAUGGUGACAUGAGGAUCACCCAUGUAUUGAUGAUUAAAUGUGGUCAAUACCAGAAGGGAUUACUAACA [SameState NG2 #51] (Eterna round: R96, puzzle: Same State NG 2) | 44.6 | 401 | 537 | – | – | –
AUAAAACAUGAGGAUCACCCAUGUCAACAAAGUCGAGGAUAUGGGCAAAGAAAAUAAUAACCAGAAGGCGAAUAAU [salish99_ss1_r3_054] (puzzle: Same State 1) | – | – | – | 42.6 | 389 | 445
ACAUGAGAACGAGGAUAUUUUGUACCUACAUGUGACAUGAGGAUCACCCAUGUGGUAAGUAUGAGAAAGAAGGCGUAGAUAUGU [Equivalence 14 - Jieux - Same State NG 2] (Eterna round: R96, puzzle: Same State NG 2) | 21.9 | 30.6 | 29 | – | – | –
GAGUUACUAUCUCAGGAUAUCAUGUCAAAGACAUGAGGAUCACCCAUGUACCAGGAAACUGGUUAUGAGAAGGGAGAUAGUAACA [Mat - Same State 2 - Mod - D51] (puzzle: Same State 2) | – | – | – | 113 | 9.6 | 14.4
GCUACAUGAGGAUCACCCAUGUGUGCGUGGGAGUGAGUGGCUUAGGAUAUCUAUGACUUGAGUUGAGAGAAGGAGGAUUGCUGU [SS-NG3-LRO12] (Eterna round: R96, puzzle: Same State NG 3) | 105 | 82.6 | 118 | – | – | –
GCAGGACGAUAAUAUAACUUCACAUGAGGAUCACCCAUGUCUCAGGAUAUGGAUCCUAAUUGGAUCCAGAAGGGAGCGUCCUGC [Fiskers NG3ss - 34] (Eterna round: R96, puzzle: Same State NG 3) | 14.5 | 25.9 | 35.1 | – | – | –
GUAGCAUACCGAGGAUAUUCAUAUAAUAAAUACAUGAGGAUCACCCAUGUAAGGCGAAAGCCUUGGGAGAAGGCGGAAUGCUAC [Xeonanis - 20 Mod59] (Eterna round: R96, puzzle: Same State NG 2) | 12.6 | 31.9 | 36.3 | – | – | –
AAAAUGGUAUGUUACAUGAGGAUCACCCAUGUACCGUCAUCUGAGGAUAUGGUGAUGUAGAAGAAUCAGAAGGCAGACAUUUAA [AK SSNG3-V2-25] (Eterna round: R96, puzzle: Same State NG 3) | 17.3 | 20 | 34.1 | – | – | –
AUAAAACAUGAGGAUCACCCAUGUCAACAAAGUCGAGGAUAUGGGCAAAUAAAAUAAUAACCAGAAGGCGAAUAAU [salish99_ss1_r3_018] (puzzle: Same State 1) | – | – | – | 63.9 | 232 | 546
GGUAGGUUACUACCAAUCACAUGAGGAUCACCCAUGUUUUGGGAGGAUAUGGUACCUAUUUGGUACCAGAAGGCCUUAUUAAUU [Fiskers NG3ss - 12] (Eterna round: R96, puzzle: Same State NG 3) | 63.6 | 36.2 | 65.3 | – | – | –
GUAGCAUACCGAGGAUAUUCAUAUAAUAUACAUGAGGAUCACCCAUGUUAUAGGCGAAAGCCUUGGGAGAAGGCGGAAUGCUAC [Xeonanis - 20 Mod62] (Eterna round: R96, puzzle: Same State NG 2) | 8.73 | 15.3 | 14.9 | – | – | –
GGGCCAACGAGCGAGGAUAUGGCCUCGGACACAUGAGGAUCACCCAUGUCGAAAAGGUCAGGAGGCUAGAAGGCGUAAAAUGCCA [Tiqusoor] (puzzle: Same State 2) | – | – | – | 11.7 | 10.8 | 13.1
AGAGAACAUGAGGAUCACCCAUGUGGGAGAGGCAUAGGAUAUAGAGGAGAGAGCGAGGAACUAGAAGGAUGAUGGA [JR_SS1_Sub080] (puzzle: Same State 1) | – | – | – | 47.3 | 70.7 | 91.3
AGCGAGAUAGGCAAGGAUAUGUAGUUUGGCACAUGAGGAUCACCCAUGUCAAUCCAUUUUUUGGAACAGAAGGUGCAUUCUCUUU [ak fourth] (puzzle: Same State 2) | – | – | – | 33.4 | 12.2 | 19.5
GCUGGAAACCACAUGAGGAUCACCCAUGUUCCGGAAACGGCACAGGAUAUCUGUCCGAAAAGGUCAGAGAAGGGUGUAACCAGC [Fiskers NG3ss - 86] (Eterna round: R96, puzzle: Same State NG 3) | 190 | 338 | 245 | – | – | –
UGAACCUUCACAGGAUAUCAUGCGAAAAUUGCGUGAGAAGGGUGAAUACGGUGUUCAUAGUUGCACAUGAGGAUCACCCAUGUA [SameState NG1 #54] (Eterna round: R96, puzzle: Same State NG 1) | 141 | 69.2 | 316 | – | – | –
GCUACGGCAGUAGGAUAUGUAGGAUAUGGCGAGAGCUAAGCUUGGAAGUCACUUCAGCCAGAAGGACAGAAGGACACCGUGAGG [pwkr ssNG2 2FMN + F9.16] (Eterna round: R96, puzzle: Same State NG 2) | 125 | 22.5 | 24.7 | – | – | –
GUAGAUAUAGAGGAGGAUAUUCAAUGAGGAACAUGAGGAUCACCCAUGUAAGAGAGAGAUGAUGAGAAGAAGGCUUAGAGGGAUG [Altered State 2-3 - Jieux - Same State 2] (puzzle: Same State 2) | – | – | – | 46.5 | 84.6 | 62
AGCACUUCAGAAGGAUAUGAGAUGCUAAGCAUCUUAGAAGGUCUGCCGUAAAGAAACGUCCACAUGAGGAUCACCCAUGUUGCA [Eternabot solution 28] (Eterna round: R96, puzzle: Same State NG 1) | 20.9 | 21.9 | 26 | – | – | –
UGUAAACAUGAGGAUCACCCAUGUUUUUUCAUGGGAGGAUAUCUGAGUUAAGUAUAUUAAGGAGAAGGCCUAUUGU [× ×•×ª×• ×ž×“×™× ×” × ×—×ª-02] (puzzle: Same State 1) | – | – | – | 83.8 | 78 | 286
GUUACAUGAGGAUCACCCAUGUAUGUGUGGGAGUAAGUGUCUUAGGAUAUCUAUUAUUAAAAUUAAGAGAAGGAAGAUUGUUGU [JMF's solution 18] (Eterna round: R96, puzzle: Same State NG 3) | 115 | 98.1 | 103 | – | – | –
AGAUGUUAAUUAGGAUAUGGUCACAUGAGGAUCACCCAUGUAACGAAGAUACGAUGUGGUCAAGACUAGAAGGGAUCGCUAACA [SameState NG2 #73] (Eterna round: R96, puzzle: Same State NG 2) | 40.5 | 47.4 | 55.3 | – | – | –
CUGAGCAGUCAAGGAUAUCACGUCGUUUAGACGUGAGAAGGUGACCAAUACAUGAGGAUCACCCAUGUAAUACAUGAAGCUCAG [SSNG1/12-A3] (Eterna round: R96, puzzle: Same State NG 1) | 16.2 | 17.8 | 37.2 | – | – | –
UCUUGGUUUUUGCUCGUUUUUUGUGUUGAACAUGAGGAUCACCCAUGUAUUGUACGGUCCGAUUUGAUAGUGGUCCG [JMF 20] (puzzle: Sensor for hsa-mir-208a) | – | – | – | 26.1 | 15.7 | 27
UGAAUAUUUACAGGAUAUGAGUUGUAUAGUGGAUCAGAAGGGUGGGUGUUUUGCACGGUGUGUUACAUGAGGAUCACCCAUGUU [SameState NG1 #26] (Eterna round: R96, puzzle: Same State NG 1) | 412 | 206 | 196 | – | – | –
GGUGCGAAUAAAGCCUACAUGAGGAUCACCCAUGUAUGUAGGCAGGAUAUCGUUUGCAAAGCAAACGAGAAGGGCUGACGCACC [Mat - Same State NG 3 - JL Mod - D49] (Eterna round: R96, puzzle: Same State NG 3) | 29.3 | 45.7 | 62.4 | – | – | –
ACUUGCCGCACAGGAUAUGGGUGCCUGUACAUGAGGAUCACCCAUGUUAAGGGACGGAUUACGAACCAGAAGGGUGAGGCGGGC [Tigeti] (Eterna round: R96, puzzle: Same State NG 2) | 124 | 418 | 750 | – | – | –
GGAGCCGGCACUGAGGAUAUUCAUAUUAAAACAUGAGGAUCACCCAUGUAGGCCAGAAGGCCUUGGGAGAAGGCAGGUCGGCCCG [Bibimaor] (Eterna round: R96, puzzle: Same State 2) | 21.7 | 250 | 311 | – | – | –
